# B1: His6-THROM-TRAF6-CC (human TRAF6 coiled-coil domain, residues 288-348, with N-terminal His6 tag and thrombin cleavage site) (domain or fragment, UniProt Q9Y4K3 288-348, looked up)
# chain: YISEVRNFQETIHQLEGRLVRQDHQIRELTAKMETQSMYVSELKRTIRTLEDKVAEIEAQQ
# notes: TRAF6, human, UniProt Q9Y4K3, coiled-coil domain, residues Y288-Q348; Cloned in pET28a between NdeI and XhoI; a thrombin cleavage site lies between the His6 tag and the domain; Printed mass of the tagged monomer is 9.61 kDa; also called His6-TRAF6-CC; hexahistidine-tagged TRAF6-CC; source: E. coli BL21-CodonPlus (DE3) RIPL, purified (Ni-NTA, SEC); not shown: His6, N-terminal, kept
# B2: tagless TRAF6-CC (human TRAF6 coiled-coil domain, residues 288-348, His6 tag removed by thrombin) (domain or fragment, UniProt Q9Y4K3 288-348, looked up)
# chain: B1 chain
# notes: TRAF6, human, UniProt Q9Y4K3, coiled-coil domain, residues Y288-Q348; Made from m1 by bovine thrombin; source: E. coli BL21-CodonPlus (DE3) RIPL, purified (Ni-NTA, thrombin cleavage, reverse Ni-NTA, SEC); not shown: His6, N-terminal, cleaved
# Biological target: the molecule itself
# Test: SEC-MALS; Superdex 200 Increase 10/300; 20 mM Tris-HCl pH 8.0, 150 mM NaCl; 0.5 mL/min; His6-TRAF6-CC at 1 and 6.57 mg/ml, tagless TRAF6-CC at 0.934 and 1.57 mg/ml; calibrated with BSA
row,Protein,stoichiometry N
1,B1,3
2,B2,3

# — doi:10.64898/2025.12.24.696318, “TRAF6 coiled-coil domain mediates its trimerization” (bioRxiv, 2025)
